# Data reported in publication PMC9439264 (Nature Communications, 2022).
# Values joined by “and” are separate entries in the source; they are usually repeats but may differ in a detail not shown here. Equal values may be shown once.
# B1: CH65, chimeric version (antibody, V domains shown)
# VH: EVQLVQSGAEVKKPGASVKVSCKASGYTFTDYHINWVRQAPGQGLEWMGWIHPNSGDTNYAQKFQGWVTMTRDTAISTAYMEVNGLKSDDTAVYYCARGGLEPRSVDYYYYGMDVWGQGTTVTVSS
# VL: SVLTQPPSVSVAPGQTARITCGGNDIGRKSVHWNQQKPGQAPVLVVCYDSDRPSGIPERFSGSNSGNTATLTISRVEAGDEADYYCQVWDSSSDHVIFGGGTKLTVL
# B2: C12H5, human-mouse chimeric version of mAb 12H5 (variable region of mouse 12H5, human IgG1 constant region) (antibody, V domains shown)
# VH: QIQLVQSGPELKKPGETVRISCKASGYTFTKNGMNWVQQAPGKGLKWVGWINTYTGEPSYADDFKGRFAFSLETSASTAYLQINNLKNEDMAAYFCARMVRDAMDFWGQGTSVTVSS
# VL: DIVLTQSPASLAVSLGQRATISCKASQSVDFDGYNYLNWYQQKPGQPPKLLIYAASNLESGIPARFSGSGSGTDFTLNIHPVEEEDAATYFCQQSNEDPYTFGGGTKLEIK
# notes: also called MAb C12H5; C12H5 IgG; copies: 2 + 2
# B3: C12H5 (human-mouse chimeric version of mAb 12H5) (antibody, V domains shown)
# VH: B2 VH
# VL: B2 VL
# notes: also called chimeric 12H5 monoclonal antibody; MAb C12H5
# B4: 12H5 Fab (mouse antibody) (Fab, V domains shown)
# VH: B2 VH
# VL: B2 VL
# notes: source: papain digestion of mAb 12H5 (mouse ascites, protein A), purified with DEAE-5PW
# B5: C12H5 (chimeric 12H5 monoclonal antibody: variable region of mouse 12H5, human IgG1 constant region) (antibody, V domains shown)
# VH: B2 VH
# VL: B2 VL
# notes: also called MAb C12H5; source: CHO cells, transient transfection, purified from culture media (MAbselect Sure)
# Experiments:
# [1] = target: HA ectodomain of A/New Caledonia/20/1999 (H1N1), recombinant (Influenza A virus A/New …, UniProt Q6WG00, strain); experiment: ELISA; conditions: both partners purified
# [2] = target: HA ectodomain of A/Beijing/262/1995 (H1N1), recombinant, with C-terminal thrombin site, foldon and 6-His-tag (Influenza A virus A/Beijing/262/1995 …, strain); experiment: SPR; conditions: both partners purified
# [3] = target: HA of A/New Caledonia/20/1999 (H1N1) virus, in infected MDCK cells (Influenza A virus A/New …, UniProt Q6WG00, strain); experiment: immunostaining of cells or tissue; conditions: one partner purified
# [4] = target: HA ectodomain of A/Beijing/262/1995 (H1N1), recombinant (Influenza A virus A/Beijing/262/1995 …, strain); experiment: SPR; conditions: both partners purified
# [5] = target: T1, HA trimer of A/Beijing/262/1995 (H1N1), thrombin- and trypsin-treated, for the immune complex (Influenza A virus A/Beijing/262/1995 …); experiment: cryo-EM structure; 12H5 Fab with thrombin- and trypsin-treated BJ/1995 HA trimer; conditions: both partners purified
# T1 construct: copies: 3 + 3
# [6] = target: HA ectodomain of A/Beijing/262/1995 (H1N1) (Influenza A virus A/Beijing/262/1995 …, strain); experiment: SPR; conditions: both partners purified
# [7] = target: HA of B/Florida/4/2006 (Yamagata) (Influenza B virus B/Florida/4/2006 …, UniProt E1TVD5, strain); experiment: ELISA; conditions: both partners purified
binder,measurement,setting,value
B1,binding result,[1],binds
B2,koff,[2],0.00089 s⁻¹
same,kon,[2],109000 M⁻¹ s⁻¹
B3,binding result,[3],binds
same,Kd,[4],8.1 nM
same,binding result,[1],binds
B4,stoichiometry N,[5],3 Fab per HA trimer
B5,Kd,[6],8.85 nM
same,koff,[6],0.0007 s⁻¹ and 0.00089 s⁻¹ and 0.00108 s⁻¹
same,kon,[6],109000 M⁻¹ s⁻¹ and 122000 M⁻¹ s⁻¹ and 95300 M⁻¹ s⁻¹
same,binding result,[7],no binding
